Reference: article PMC2736636
Where two headings read alike, the source gives them in different places.

What was measured:
Experiment in all cases: EMSA
[1] = molecular target: T1, O6-alkylguanine-DNA alkyltransferase (AGT, MGMT) (human, UniProt P16455 1-207)
[2] = molecular target: T1, O6-alkylguanine-DNA alkyltransferase …; remark: listed apart in the source
[3] = molecular target: T1, O6-alkylguanine-DNA alkyltransferase …; remark: listed apart in the source

T1 sequence (P16455 whole entry): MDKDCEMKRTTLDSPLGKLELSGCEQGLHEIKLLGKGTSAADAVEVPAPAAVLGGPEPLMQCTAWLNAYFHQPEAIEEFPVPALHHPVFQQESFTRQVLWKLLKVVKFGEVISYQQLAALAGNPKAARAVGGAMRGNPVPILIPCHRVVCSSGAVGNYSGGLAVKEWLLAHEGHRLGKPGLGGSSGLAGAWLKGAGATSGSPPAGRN

B1: duplex 16mer (A/B) (dsDNA)
DNA 1: GACTGACTGACTGACT
DNA 2: AGTCAGTCAGTCAGTC
With B1 the Ka [1] was 2.58e+06 M⁻¹, the Ka [2] was 16900 M⁻¹ and the Ka [3] was 3.97 ± 0.02 log10 M-1.
